Experiments:
[1] = biological target: hOGG1 (human oxoguanine glycosylase 1), wildtype (human) (UniProt O15527); experiment: fluorescence polarisation; reducing conditions (5 mM DTT); 5 nM Ni-NTA AF488 labelled his6-hOGG1, unlabelled protein titrated (Myc 1.22 nM-2 uM, LSD1 1.38 nM-60 uM, hOGG1 0.24 nM-8 uM); 20 mM Tris-HCl pH 7.6, 200 mM NaCl; 25 C; single Hill fit
[2] = biological target: hOGG1 (human oxoguanine glycosylase 1), wildtype (human) (UniProt O15527); experiment: fluorescence polarisation; oxidising conditions (5 uM H2O2); 5 nM Ni-NTA AF488 labelled his6-hOGG1, unlabelled protein titrated (Myc 1.22 nM-2 uM, LSD1 1.38 nM-60 uM, hOGG1 0.24 nM-8 uM); 20 mM Tris-HCl pH 7.6, 200 mM NaCl; 25 C; single Hill fit
[3] = biological target: hOGG1 (human oxoguanine glycosylase 1), wildtype (human) (UniProt O15527); experiment: FP; oxidising; conditions: domain or fragment
[4] = biological target: hOGG1 (human oxoguanine glycosylase 1), wildtype (human) (UniProt O15527); experiment: FP; reducing; conditions: domain or fragment
hOGG1 wild type (human) = hOGG1 wild type (human) (UniProt O15527); experiment: AFM; conditions: 150 nM hOGG1, 8-oxoguanine at ~50% (49.8%) of length, FP at 25°C with 5 nM labelled DNA, EMSA room temp 30 min, 15% native PAGE 0.5x TBE 4°C, interaction buffer 20 mM Tris-HCl pH 7.6, 200 mM NaCl (Fig. S12) …
hOGG1 wild type (human), sequence (O15527 whole entry): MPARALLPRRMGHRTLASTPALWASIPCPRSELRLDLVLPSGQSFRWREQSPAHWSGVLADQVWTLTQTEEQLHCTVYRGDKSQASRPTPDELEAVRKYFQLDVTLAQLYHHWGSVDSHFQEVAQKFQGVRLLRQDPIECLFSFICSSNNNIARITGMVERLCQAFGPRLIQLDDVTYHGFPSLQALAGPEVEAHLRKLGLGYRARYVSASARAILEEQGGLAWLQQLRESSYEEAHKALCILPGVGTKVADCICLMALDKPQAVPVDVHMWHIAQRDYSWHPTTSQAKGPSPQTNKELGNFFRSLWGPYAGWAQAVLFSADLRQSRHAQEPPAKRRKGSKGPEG

hOGG1 (human oxoguanine glycosylase 1), wildtype (human), sequence (O15527 whole entry, the tested form may be a part): as the sequence (O15527 whole entry) above
isolated N-terminal domain of Myc, sequence (P01106 16-158): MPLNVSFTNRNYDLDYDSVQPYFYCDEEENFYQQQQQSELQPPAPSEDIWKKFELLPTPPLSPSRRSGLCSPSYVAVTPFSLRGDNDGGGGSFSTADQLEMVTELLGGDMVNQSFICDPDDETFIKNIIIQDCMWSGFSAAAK
GST tagged full length c-Myc, sequence (P01106 whole entry): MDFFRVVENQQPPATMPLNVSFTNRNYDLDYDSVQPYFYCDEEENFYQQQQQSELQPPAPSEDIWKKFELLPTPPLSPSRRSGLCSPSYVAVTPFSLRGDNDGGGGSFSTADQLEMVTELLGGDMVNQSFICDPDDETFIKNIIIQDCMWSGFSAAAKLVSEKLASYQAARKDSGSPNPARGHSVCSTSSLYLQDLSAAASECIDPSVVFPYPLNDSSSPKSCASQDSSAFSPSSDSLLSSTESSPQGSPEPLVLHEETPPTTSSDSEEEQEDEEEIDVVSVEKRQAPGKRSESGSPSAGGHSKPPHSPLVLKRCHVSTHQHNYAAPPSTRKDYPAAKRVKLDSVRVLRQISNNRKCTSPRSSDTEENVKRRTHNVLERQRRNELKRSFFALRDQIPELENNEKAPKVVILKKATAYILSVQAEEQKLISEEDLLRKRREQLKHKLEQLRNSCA

## GST tagged full length c-Myc (from UniProt P01106 1-454) (natural protein; Ni-NTA AlexaFluor 488 dye on the his6 tag (labelled copy in fluorescence polarisation); other documents disagree on this pair)
[1]
  Kd: 1060 nM
[2]
  Kd: 662 nM

## isolated N-terminal domain of Myc
[3]
  Kd: 705 nM
[4]
  Kd: 1070 nM

## oxoG 505 bp AFM substrate
hOGG1 wild type (human); oxidising, specificity 368 ± 74
  binding signal (counts/DNA at oxoG): 0.1
hOGG1 wild type (human); reducing, specificity 543 ± 37
  binding signal (counts/DNA at oxoG): 0.18
